The text below walks through data of patent US20180155451A1 (published 2018).

In assay [1] the target is T1, FcγRIa extracellular domain with C-terminal His tag (human, UniProt P12314 16-292).
T1 construct: extracellular domain; also called FcgRI; CD64; not shown: His tag at the C terminus
Briefly: SPR Biacore, relative FcγRIa binding vs GpH7-A5/GpH7-B3/GpL16-k0. For orientation: SPR reads the build-up and loss of mass on a sensor chip optically.

Assay [2] has as its target T1, FcγRIa extracellular domain with …. Put plainly: SPR Biacore, relative FcγRIa binding vs GpH7-B3/GpL16-k0.

T1 sequence (P12314 16-292): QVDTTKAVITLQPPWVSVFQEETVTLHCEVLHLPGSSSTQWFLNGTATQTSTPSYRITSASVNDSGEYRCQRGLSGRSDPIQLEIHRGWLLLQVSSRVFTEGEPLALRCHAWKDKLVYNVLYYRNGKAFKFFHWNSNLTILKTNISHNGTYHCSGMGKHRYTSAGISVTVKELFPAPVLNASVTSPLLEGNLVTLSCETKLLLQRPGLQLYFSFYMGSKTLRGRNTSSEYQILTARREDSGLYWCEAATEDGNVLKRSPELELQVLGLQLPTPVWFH

B1: GpH7-A5/GpH7-B3 variant S337_08L/GpL16-k0 (antibody, human IgG1, kappa)
heavy 1: not shown
heavy 2: not shown
light: DIVMTQSPLSLPVTPGEPASISCQASESLVHSNRNTYLHWYLQKPGQSPQLLIYKVSNRFSGVPDRFSGSGSGTDFTLKISRVEAEDVGVYYCSQNTHVPPTFGQGTKVEIERTVAAPSVFIFPPSDEQLKSGTASVVCLLNNFYPREAKVQWKVDNALQSGNSQESVTEQDSKDSTYSLSSTLTLSKADYEKHKVYACEVTHQGLSSPVTKSFNRGEC
notes: mutation in one H chain only; also called He Ab S337_08L; S337L
As for B1, the He/Con_1a in assay [1] is 105 % of HeCon Ab (=100).

B2: GpH7-A5/GpH7-B3 variant S324_19Q/GpL16-k0 (antibody, human IgG1, kappa)
heavy 1: not shown
heavy 2: not shown
light: B1 light
notes: mutation in one H chain only; also called He Ab S324_19Q; S324Q
Consider B2, for which, in assay [1], the He/Con_1a is 112 % of HeCon Ab (=100).

B3: GpH7-A5/GpH7-B3 variant S298_04F/GpL16-k0 (antibody, human IgG1, kappa)
heavy 1: not shown
heavy 2: not shown
light: B1 light
notes: mutation in one H chain only; also called He Ab S298_04F; S298F
As for B3, the He/Con_1a in assay [1] was 109 % of HeCon Ab (=100).

B4: GpH7-B3 variant T335_10E/GpL16-k0 (antibody, human IgG1, kappa)
heavy: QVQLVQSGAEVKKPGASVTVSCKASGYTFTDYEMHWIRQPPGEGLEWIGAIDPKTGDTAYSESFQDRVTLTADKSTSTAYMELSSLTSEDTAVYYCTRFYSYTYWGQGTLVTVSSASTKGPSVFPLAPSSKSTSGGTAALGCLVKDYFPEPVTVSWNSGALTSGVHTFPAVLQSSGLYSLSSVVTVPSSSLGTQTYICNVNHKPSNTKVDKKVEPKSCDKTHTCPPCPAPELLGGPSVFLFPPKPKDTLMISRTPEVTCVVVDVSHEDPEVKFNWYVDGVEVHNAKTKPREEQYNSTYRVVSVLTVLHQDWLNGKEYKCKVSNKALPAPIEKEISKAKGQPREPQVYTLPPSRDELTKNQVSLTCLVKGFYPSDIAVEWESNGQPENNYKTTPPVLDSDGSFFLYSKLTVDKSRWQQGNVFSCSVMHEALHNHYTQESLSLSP
light: B1 light
notes: mutation in both H chains; also called Ho Ab T335_10E; T335E
B4: the Ho/Con_1a in assay [2] is 108 % of HoCon Ab (=100).

B5: GpH7-A5/GpH7-B3 variant S337_10E/GpL16-k0 (antibody, human IgG1, kappa)
heavy 1: not shown
heavy 2: not shown
light: B1 light
notes: mutation in one H chain only; also called He Ab S337_10E; S337E
As to B5, in assay [1], the He/Con_1a is 106 % of HeCon Ab (=100).

B6: GpH7-A5/GpH7-B3 variant S298_03V/GpL16-k0 (antibody, human IgG1, kappa)
heavy 1: not shown
heavy 2: not shown
light: B1 light
notes: mutation in one H chain only; also called He Ab S298_03V; S298V
As for B6, in assay [1], the He/Con_1a was 110 % of HeCon Ab (=100).

B7: GpH7-A5/GpH7-B3 variant S324_12R/GpL16-k0 (antibody, human IgG1, kappa)
heavy 1: not shown
heavy 2: not shown
light: B1 light
notes: mutation in one H chain only; also called He Ab S324_12R; S324R
Turning to B7, the He/Con_1a in assay [1] is 102 % of HeCon Ab (=100).

B8: GpH7-A5/GpH7-B3 variant S324_03V/GpL16-k0 (antibody, human IgG1, kappa)
heavy 1: not shown
heavy 2: not shown
light: B1 light
notes: mutation in one H chain only; also called He Ab S324_03V; S324V
Consider B8, for which the He/Con_1a in assay [1] was 104 % of HeCon Ab (=100).

B9: GpH7-A5/GpH7-B3 variant S298_08L/GpL16-k0 (antibody, human IgG1, kappa)
heavy 1: not shown
heavy 2: not shown
light: B1 light
notes: mutation in one H chain only; also called He Ab S298_08L; S298L
As for B9, the He/Con_1a in assay [1] is 107 % of HeCon Ab (=100).

B10: GpH7-A5/GpH7-B3 variant S337_07I/GpL16-k0 (antibody, human IgG1, kappa)
heavy 1: not shown
heavy 2: not shown
light: B1 light
notes: mutation in one H chain only; also called He Ab S337_07I; S337I
On to B10, for which the He/Con_1a in assay [1] is 105 % of HeCon Ab (=100).

B11: GpH7-A5/GpH7-B3 variant S298_02A/GpL16-k0 (antibody, human IgG1, kappa)
heavy 1: not shown
heavy 2: not shown
light: B1 light
notes: mutation in one H chain only; also called He Ab S298_02A; S298A
As to B11, the He/Con_1a in assay [1] was 107 % of HeCon Ab (=100).

B12: GpH7-A5/GpH7-B3 variant S324_15Y/GpL16-k0 (antibody, human IgG1, kappa)
heavy 1: not shown
heavy 2: not shown
light: B1 light
notes: mutation in one H chain only; also called He Ab S324_15Y; S324Y
As for B12, the He/Con_1a in assay [1] is 114 % of HeCon Ab (=100).

B13: GpH7-A5/GpH7-B3 variant S298_20W/GpL16-k0 (antibody, human IgG1, kappa)
heavy 1: not shown
heavy 2: not shown
light: B1 light
notes: mutation in one H chain only; also called He Ab S298_20W; S298W
Consider B13, for which, in assay [1], the He/Con_1a was 104 % of HeCon Ab (=100).

B14: GpH7-B3 variant V266_19Q/GpL16-k0 (antibody, human IgG1, kappa)
heavy: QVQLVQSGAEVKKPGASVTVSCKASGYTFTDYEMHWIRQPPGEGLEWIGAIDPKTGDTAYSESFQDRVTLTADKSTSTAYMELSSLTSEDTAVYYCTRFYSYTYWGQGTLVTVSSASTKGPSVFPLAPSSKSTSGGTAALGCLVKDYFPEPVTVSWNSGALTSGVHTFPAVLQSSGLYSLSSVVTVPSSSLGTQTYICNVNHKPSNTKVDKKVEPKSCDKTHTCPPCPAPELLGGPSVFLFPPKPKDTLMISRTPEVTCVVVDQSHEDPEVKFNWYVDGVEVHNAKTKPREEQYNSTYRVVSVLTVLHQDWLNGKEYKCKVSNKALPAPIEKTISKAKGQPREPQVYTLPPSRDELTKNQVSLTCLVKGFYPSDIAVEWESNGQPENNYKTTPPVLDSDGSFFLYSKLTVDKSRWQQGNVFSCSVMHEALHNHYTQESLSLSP
light: B1 light
notes: mutation in both H chains; also called Ho Ab V266_19Q; V266Q
Turning to B14, the Ho/Con_1a in assay [2] was 91.2 % of HoCon Ab (=100).

B15: GpH7-A5/GpH7-B3 variant S298_19Q/GpL16-k0 (antibody, human IgG1, kappa)
heavy 1: not shown
heavy 2: not shown
light: B1 light
notes: mutation in one H chain only; also called He Ab S298_19Q; S298Q
As for B15, the He/Con_1a in assay [1] is 109 % of HeCon Ab (=100).

B16: GpH7-A5/GpH7-B3 variant S324_08L/GpL16-k0 (antibody, human IgG1, kappa)
heavy 1: not shown
heavy 2: not shown
light: B1 light
notes: mutation in one H chain only; also called He Ab S324_08L; S324L
For B16, in assay [1], the He/Con_1a was 103 % of HeCon Ab (=100).

B17: GpH7-A5/GpH7-B3 variant S298_06M/GpL16-k0 (antibody, human IgG1, kappa)
heavy 1: not shown
heavy 2: not shown
light: B1 light
notes: mutation in one H chain only; also called He Ab S298_06M; S298M
Consider B17, for which the He/Con_1a in assay [1] is 114 % of HeCon Ab (=100).

B18: GpH7-A5/GpH7-B3 variant S324_14T/GpL16-k0 (antibody, human IgG1, kappa)
heavy 1: not shown
heavy 2: not shown
light: B1 light
notes: mutation in one H chain only; also called He Ab S324_14T; S324T
B18: in assay [1], the He/Con_1a was 121 % of HeCon Ab (=100).

B19: GpH7-A5/GpH7-B3 variant S324_20W/GpL16-k0 (antibody, human IgG1, kappa)
heavy 1: not shown
heavy 2: not shown
light: B1 light
notes: mutation in one H chain only; also called He Ab S324_20W; S324W
For the molecule B19, the He/Con_1a in assay [1] is 114 % of HeCon Ab (=100).

B20: GpH7-A5/GpH7-B3 variant S337_06M/GpL16-k0 (antibody, human IgG1, kappa)
heavy 1: not shown
heavy 2: not shown
light: B1 light
notes: mutation in one H chain only; also called He Ab S337_06M; S337M
As to B20, in assay [1], the He/Con_1a was 107 % of HeCon Ab (=100).

B21: GpH7-A5/GpH7-B3 variant S267_08L/GpL16-k0 (antibody, human IgG1, kappa)
heavy 1: not shown
heavy 2: not shown
light: B1 light
notes: mutation in one H chain only; also called He Ab S267_08L; S267L
B21: the He/Con_1a in assay [1] was 101 % of HeCon Ab (=100).

B22: GpH7-A5/GpH7-B3 variant S324_02A/GpL16-k0 (antibody, human IgG1, kappa)
heavy 1: not shown
heavy 2: not shown
light: B1 light
notes: mutation in one H chain only; also called He Ab S324_02A; S324A
Consider B22, for which the He/Con_1a in assay [1] is 103 % of HeCon Ab (=100).

B23: GpH7-B3 variant T335_09D/GpL16-k0 (antibody, human IgG1, kappa)
heavy: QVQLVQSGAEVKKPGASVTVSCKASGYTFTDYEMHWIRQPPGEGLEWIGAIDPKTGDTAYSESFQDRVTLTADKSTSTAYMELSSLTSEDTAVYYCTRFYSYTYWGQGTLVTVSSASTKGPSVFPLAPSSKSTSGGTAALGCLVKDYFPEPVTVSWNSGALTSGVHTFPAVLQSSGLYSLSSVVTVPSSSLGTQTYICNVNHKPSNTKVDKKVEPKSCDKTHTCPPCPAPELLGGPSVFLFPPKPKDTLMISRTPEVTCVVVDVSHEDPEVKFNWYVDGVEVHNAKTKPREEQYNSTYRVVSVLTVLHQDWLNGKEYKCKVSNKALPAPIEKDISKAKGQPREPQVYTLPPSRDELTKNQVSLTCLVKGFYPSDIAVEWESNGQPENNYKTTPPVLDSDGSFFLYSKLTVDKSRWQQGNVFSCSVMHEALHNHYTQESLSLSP
light: B1 light
notes: mutation in both H chains; also called Ho Ab T335_09D; T335D
Consider B23, for which the Ho/Con_1a in assay [2] is 107 % of HoCon Ab (=100).

B24: GpH7-A5/GpH7-B3 variant S324_18N/GpL16-k0 (antibody, human IgG1, kappa)
heavy 1: not shown
heavy 2: not shown
light: B1 light
notes: mutation in one H chain only; also called He Ab S324_18N; S324N
Take B24: the He/Con_1a in assay [1] is 116 % of HeCon Ab (=100).

B25: GpH7-A5/GpH7-B3 variant S239_19Q/GpL16-k0 (antibody, human IgG1, kappa)
heavy 1: not shown
heavy 2: not shown
light: B1 light
notes: mutation in one H chain only; also called He Ab S239_19Q; S239Q
Take B25: in assay [1], the He/Con_1a is 101 % of HeCon Ab (=100).

B26: GpH7-A5/GpH7-B3 variant S337_02A/GpL16-k0 (antibody, human IgG1, kappa)
heavy 1: not shown
heavy 2: not shown
light: B1 light
notes: mutation in one H chain only; also called He Ab S337_02A; S337A
Regarding B26, the He/Con_1a in assay [1] was 106 % of HeCon Ab (=100).

B27: GpH7-A5/GpH7-B3 variant S324_11K/GpL16-k0 (antibody, human IgG1, kappa)
heavy 1: not shown
heavy 2: not shown
light: B1 light
notes: mutation in one H chain only; also called He Ab S324_11K; S324K
For the molecule B27, the He/Con_1a in assay [1] was 102 % of HeCon Ab (=100).

B28: GpH7-A5/GpH7-B3 variant S337_01G/GpL16-k0 (antibody, human IgG1, kappa)
heavy 1: not shown
heavy 2: not shown
light: B1 light
notes: mutation in one H chain only; also called He Ab S337_01G; S337G
B28: the He/Con_1a in assay [1] was 107 % of HeCon Ab (=100).
